Positions count from the first letter of the chain named.
What was measured:
[1] = molecular target: T1, Sen1Hel (crystal construct, loop 1,471-1,538 removed) (Saccharomyces cerevisiae, UniProt Q00416, DEL1471-1538); assay: X-ray crystal structure, […] A; assay type: binding; conditions: 10-fold molar excess ADP, HEPES pH 7.5, 4 C; nucleotide site on RecA1, no RNA
T1 construct: gene SEN1; helicase core 1095-1904 with disordered loop 1471-1538 replaced by a (Gly-Ser)2 linker; C-terminal CPD-His8 tag cut off with 3C; expressed in E. coli; model covers 1096-1875
T1 sequence (Q00416 with tags, fused parts or gaps DEL1471-1538): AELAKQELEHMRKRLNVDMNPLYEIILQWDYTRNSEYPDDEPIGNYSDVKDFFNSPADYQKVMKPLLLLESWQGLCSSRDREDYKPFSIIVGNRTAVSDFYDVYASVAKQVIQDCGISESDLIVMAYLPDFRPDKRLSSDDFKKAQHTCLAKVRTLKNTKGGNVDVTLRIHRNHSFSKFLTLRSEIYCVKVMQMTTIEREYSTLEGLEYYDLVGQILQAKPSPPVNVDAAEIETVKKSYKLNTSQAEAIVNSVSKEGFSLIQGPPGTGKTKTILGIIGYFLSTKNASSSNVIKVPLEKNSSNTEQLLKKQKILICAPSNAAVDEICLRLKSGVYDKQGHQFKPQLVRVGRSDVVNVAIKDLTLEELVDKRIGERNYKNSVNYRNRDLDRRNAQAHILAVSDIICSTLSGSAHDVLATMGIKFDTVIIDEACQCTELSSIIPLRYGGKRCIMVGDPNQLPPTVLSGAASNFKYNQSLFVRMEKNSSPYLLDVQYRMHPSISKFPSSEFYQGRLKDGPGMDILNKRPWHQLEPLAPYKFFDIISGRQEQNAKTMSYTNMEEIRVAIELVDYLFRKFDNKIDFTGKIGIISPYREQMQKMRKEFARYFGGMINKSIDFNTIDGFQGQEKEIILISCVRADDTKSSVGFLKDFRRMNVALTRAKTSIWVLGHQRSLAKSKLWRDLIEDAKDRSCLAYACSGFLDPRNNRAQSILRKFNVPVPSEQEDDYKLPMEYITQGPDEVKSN

Sen1Hel = molecular target: T2, Sen1Hel (Saccharomyces cerevisiae, UniProt Q00416); assay: ATP hydrolysis, alpha-32P-ATP, thin-layer chromatography; assay type: biochemical; conditions: polyU 50 ng/ul, 250 uM ATP, 1 mM MgCl2, pH 7.5, 28 C
T2 construct: gene SEN1; helicase core 1095-1904, ~90 kDa; C-terminal CPD-His8 tag cut off with 3C protease; expressed in E. coli BL21 (DE3) STAR pRARE
T2 sequence (Q00416 1095-1904): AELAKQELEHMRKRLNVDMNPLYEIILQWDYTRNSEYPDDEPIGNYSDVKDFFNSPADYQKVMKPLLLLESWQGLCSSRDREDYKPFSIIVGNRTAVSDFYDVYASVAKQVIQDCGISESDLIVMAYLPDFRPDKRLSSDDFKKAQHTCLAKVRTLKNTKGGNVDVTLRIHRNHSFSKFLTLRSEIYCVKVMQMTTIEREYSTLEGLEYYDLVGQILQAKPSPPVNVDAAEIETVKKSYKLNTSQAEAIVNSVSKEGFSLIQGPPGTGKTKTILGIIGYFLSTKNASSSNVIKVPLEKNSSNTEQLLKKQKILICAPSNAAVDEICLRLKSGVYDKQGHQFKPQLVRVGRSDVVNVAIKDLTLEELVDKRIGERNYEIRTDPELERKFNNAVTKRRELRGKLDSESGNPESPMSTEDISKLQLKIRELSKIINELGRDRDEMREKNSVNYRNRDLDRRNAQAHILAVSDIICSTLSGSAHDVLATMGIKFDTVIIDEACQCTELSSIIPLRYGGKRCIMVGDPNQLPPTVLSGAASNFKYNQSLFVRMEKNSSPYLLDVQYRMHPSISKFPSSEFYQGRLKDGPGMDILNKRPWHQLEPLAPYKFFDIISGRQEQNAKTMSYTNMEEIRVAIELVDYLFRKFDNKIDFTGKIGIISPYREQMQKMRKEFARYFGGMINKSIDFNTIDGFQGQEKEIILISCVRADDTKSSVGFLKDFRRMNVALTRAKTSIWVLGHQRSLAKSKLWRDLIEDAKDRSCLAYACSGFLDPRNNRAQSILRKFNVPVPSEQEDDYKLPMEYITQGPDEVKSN

Sen1Hel N1413S = molecular target: T3, Sen1Hel N1413S (Saccharomyces cerevisiae, UniProt Q00416 1095-1904, N1413S); assay: fluorescence anisotropy; 2 mM Mg2+; text says impaired; FA: 20 mM Hepes pH 7.5, 300 mM NaCl, 2 mM MgCl2, 1 mM DTT, 20 C, 10 nM RNA; EMSA: 2 nM RNA, 10-160 nM protein (buffer not in the material); conditions: protein: recombinant; tags: C-terminal CPD-His8 removed by 3C; label: 5' fluorescein
T3 sequence: T2 sequence (Q00416 1095-1904) with N319S

Sen1Hel (wild type) [2] = molecular target: T4, Sen1Hel (wild type) (Saccharomyces cerevisiae, UniProt Q00416 1095-1904); assay: fluorescence anisotropy; 2 mM Mg2+; FA: 20 mM Hepes pH 7.5, 300 mM NaCl, 2 mM MgCl2, 1 mM DTT, 20 C, 10 nM RNA; EMSA: 2 nM RNA, 10-160 nM protein (buffer not in the material); conditions: protein: recombinant; tags: C-terminal CPD-His8 removed by 3C; label: 5' fluorescein
T4 sequence: T2 sequence (Q00416 1095-1904)

Sen1Hel P1622L = molecular target: T5, Sen1Hel P1622L (Saccharomyces cerevisiae, UniProt Q00416 1095-1904, P1622L); assay: as above; conditions: protein: recombinant; tags: C-terminal CPD-His8 removed by 3C; label: 5' fluorescein
T5 sequence: T2 sequence (Q00416 1095-1904) with P528L

Sen1Hel deltaLP = molecular target: T6, Sen1Hel deltaLP (Saccharomyces cerevisiae, UniProt Q00416 1095-1904, del1461-1554); assay: EMSA; FA: 20 mM Hepes pH 7.5, 300 mM NaCl, 2 mM MgCl2, 1 mM DTT, 20 C, 10 nM RNA; EMSA: 2 nM RNA, 10-160 nM protein (buffer not in the material); conditions: protein: recombinant; tags: C-terminal CPD-His8 removed by 3C; label: 5' fluorescent label
T6 sequence: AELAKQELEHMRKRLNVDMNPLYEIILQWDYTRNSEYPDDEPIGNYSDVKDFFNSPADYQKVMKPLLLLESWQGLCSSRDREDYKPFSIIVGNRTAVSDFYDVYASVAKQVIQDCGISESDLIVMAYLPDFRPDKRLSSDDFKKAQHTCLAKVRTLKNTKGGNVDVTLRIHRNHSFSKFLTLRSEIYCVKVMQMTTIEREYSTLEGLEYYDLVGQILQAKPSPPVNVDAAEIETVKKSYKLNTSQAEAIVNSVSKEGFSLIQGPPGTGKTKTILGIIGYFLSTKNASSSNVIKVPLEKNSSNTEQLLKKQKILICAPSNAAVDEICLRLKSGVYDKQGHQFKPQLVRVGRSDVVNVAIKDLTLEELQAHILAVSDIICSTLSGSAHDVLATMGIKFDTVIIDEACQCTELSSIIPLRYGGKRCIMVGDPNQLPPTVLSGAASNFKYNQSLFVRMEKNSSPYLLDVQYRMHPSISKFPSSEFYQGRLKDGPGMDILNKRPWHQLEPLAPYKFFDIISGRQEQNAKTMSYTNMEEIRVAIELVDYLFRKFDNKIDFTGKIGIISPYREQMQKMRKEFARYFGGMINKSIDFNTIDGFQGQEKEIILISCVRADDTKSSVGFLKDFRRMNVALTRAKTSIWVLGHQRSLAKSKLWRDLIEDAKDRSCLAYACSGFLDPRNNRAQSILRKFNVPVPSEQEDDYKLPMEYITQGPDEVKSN

Sen1Hel (wild type) [3] = molecular target: T4, Sen1Hel (wild type); assay: EMSA; high-order complexes at high protein; FA: 20 mM Hepes pH 7.5, 300 mM NaCl, 2 mM MgCl2, 1 mM DTT, 20 C, 10 nM RNA; EMSA: 2 nM RNA, 10-160 nM protein (buffer not in the material); conditions: protein: recombinant; tags: C-terminal CPD-His8 removed by 3C; label: 5' fluorescent label

Molecule: Nc1ncnc2c1ncn2[C@@H]1O[C@H](COP(=O)(O)OP(=O)(O)O)[C@@H](O)[C@H]1O [ADP]
- X-ray crystal structure, 1.8 A [1]: We crystallized Sen1Hel in the presence of ADP and determined the structure

Molecule: Nc1ncnc2c1ncn2[C@@H]1O[C@H](COP(=O)(O)OP(=O)(O)OP(=O)(O)O)[C@@H](O)[C@H]1O [ATP]
- ATP hydrolysis, alpha-32P-ATP, thin-layer chromatography (Sen1Hel): Sen1Hel showed levels of RNA‐dependent ATPase activity similar to those of full‐length Sen1

Molecule: UUUCUAUUUAUUUUG (ssRNA) [ARE 15-mer AU-rich RNA]
- binding result (Sen1Hel N1413S): no binding
- Kd (Sen1Hel (wild type) [2]): ~0.6 µM
- Kd (Sen1Hel P1622L): ~6.4 µM

Molecule: UUCAUUUCAGACCAGCACCCACUCACUACAACUCACGACCAGGC (ssRNA) [DL3316 44-mer RNA]
- binding result (Sen1Hel deltaLP): binds
- binding result (Sen1Hel (wild type) [3]): binds

Source: PMC5452015, “Sen1 has unique structural features grafted on the architecture of the Upf1‐like helicase family” (The EMBO Journal, 2017)
